The values that follow come from PMC12656920.

The target of data set [1] is T1, PV-3C main protease (Poliovirus, UniProt P03300 1566-1748). The data set is described as follows: NMR (SOFAST-HMQC peak loss). The conditions noted are these: protein: recombinant; tags: SUMO tag cleaved by ULP-1; 15N-labeled for NMR.
Data set [2] deals with T1, PV-3C main protease. The data set is described as follows: NMR (SOFAST-HMQC CSP); 3C:RNA 1:0.5. The conditions noted are these: protein: recombinant; tags: SUMO tag cleaved by ULP-1; 15N-labeled for NMR.

T1 sequence (P03300 1566-1748): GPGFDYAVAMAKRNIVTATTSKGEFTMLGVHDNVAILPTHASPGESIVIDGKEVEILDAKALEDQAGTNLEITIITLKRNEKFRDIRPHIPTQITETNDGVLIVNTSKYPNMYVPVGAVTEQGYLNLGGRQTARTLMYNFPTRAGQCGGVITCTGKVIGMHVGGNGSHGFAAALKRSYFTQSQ

For the molecule CAUACUGUUGUAGGGGAA (ssRNA) [RNA-2], the binding result in data set [1] is on record as “binds”. As for GGCGGCGUACUCCGG (ssRNA) [RNA-1], in data set [2], the binding result is on record as “binds”.
